Source: publication PMC5966361, “Ligand binding and conformational changes of SUR1 subunit in pancreatic ATP-sensitive potassium channels” (Protein & Cell, 2018)

How the values were obtained:
[1] = target: SUR1-Kir6.2 fusion construct with a 39-residue linker (Mesocricetus auratus | Mus musculus); assay: SEC; screening of fusion constructs: cleared lysate of transfected FreeStyle 293-F cells solubilised in 20 mmol/L HEPES pH 8.0, 120 mmol/L KCl, 1% digitonin, loaded onto a Superose 6 increase column
[2] = target: the molecule itself; assay: cryo-EM structure; Mg-ADP state: purified fusion channel in 20 mmol/L HEPES pH 8.0, 120 mmol/L KCl, 0.1% digitonin, with 2.5 mmol/L MgCl2, 1 mmol/L ADP, 400 μmol/L 08:0 PI(4,5)P2, 500 μmol/L NN414 and 1 mmol/L Na3VO4; C4 symmetry

Molecule | stoichiometry N [1] | stoichiometry N [2]
SUR1-Kir6.2 fusion construct with a 39-residue linker (complex) | 4 | –
Kir6.2 (inward-rectifying potassium channel 6.2) subunit, as part of the SUR1-Kir6.2 fusion construct (natural protein, Mus musculus, Kir6.2 from Mus musculus (Woo et al., 2013); In the assay it stood as the C-terminal part of the fusion chain of m1; its N-terminus is joined through the 39-residue linker to the C-terminus of SUR1, so it has no free native N-terminus; The linker and the Kir6.2 N-terminus are disordered in the maps; also called mmKir6.2; source: FreeStyle 293-F cells, BacMam system, purified as part of the fusion …) MLSRKGIIPEEYVLTRLAEDPAEPRYRTRERRARFVSKKGNCNVAHKNIREQGRFLQDVFTTLVDLKWPHTLLIFTMSFLCSWLLFAMVWWLIAFAHGDLAPGEGTNVPCVTSIHSFSSAFLFSIEVQVTIGFGGRMVTEECPLAILILIVQNIVGLMINAIMLGCIFMKTAQAHRRAETLIFSKHAVITLRHGRLCFMLRVGDLRKSMIISATIHMQVVRKTTSPEGEVVPLHQVDIPMENGVGGNGIFLVAPLIIYHVIDSNSPLYDLAPSDLHHHQDLEIIVILEGVVETTGITTQARTSYLADEILWGQRFVPIVAEEDGRYSVDYSKFGNTIKVPTPLCTARQLDEDRSLLDALTLASSRGPLRKRSVAVAKAKPKFSISPDSLS | – | 4
